The source of these data is a protein production outcome set (Wang et al. 2014).

A short description of this data set: label from the status in PepcDB records.

Turning to “MDFSSNVAAQLNAGTILPEGIVIVTLLLVLIVDLIGGRKVALALPYLAIAGLLVSVGLLVTSWSMADPIGFIGAFNGDNLSIIFRAIIALSTVVTILMSVRYVQQTGTSLAEFIAILLTATLGGMFLSAANELVMVFISLEMLSISSYLMTGYMKRDPRSNEAALKYLLIGASSSAIFLYGLSLLYGLSGGETQLVLIAEKLVNADTVGQSLGLAIALVFVIAGIAFKISAVPFHQWTPDVYEGSPTPVVAFLSVGSKAAGFAVAIRLLVTAFGGITDEWHVIFTALAVLSMVLGNVVALAQTSMKRMLAYSSIGQAGFVMIGLVAGSEDGYASMVFYMLIYLFMNLGAFSCIILFTLRTGSDQISDYAGLYHKDPLLTLGLSICLLSLGGIPPLAGFFGKIYIFWAGWQSGLYGLVLLGLVTSVVSIYYYIRVVKMMVVKEPQEMSEVIKNYPAIKWNLPGMRPLQVGIVATLVATSLAGILANPLFNLATDSVVSTKMLQTALQQTGETPAIAISHDLP”, the protein production result is recorded as “failed”.
For the sequence “MDFSVLLASLGISILELSEASAVAVIFQGIYKNSKPFLYAIAGILIVLVPVFTLGQYIVLLPINYVLLVAAVILAYFGYKLLRSARRSFKGSKKKHEEKEEGIMTVFVVSATEALEAGLVILALIPQSFSSALLGTGIAVIIVIALTIALRSQIMKIRVPHLKFVLSALLFGLATLFVAEALVDIDEVFLPLFFVIYLGVNYLVIKL”, the protein production entry is given as “failed”.
The same measure for “MDFVFDIDGTLCFDGMSLSKEIQGILERAQIDYGHRVTFATARSYRDTIGILGDKLSLSKIIGLNGATLHENGHLVDSYYLQSDFFSTIISYCHRHQIPYFVDEVFNYATYQASKIPFIAYVDPQKRGELLEVSKIEKPIKMVLYFGDQLGRADQMLAELNRFGLSSHFFHEFEKCLYINPIAVDKGKATKKLFGNRFIAFGNDKNDISMFDAAHYSVQVGDFDELTPYANLRVSRESVHEGITTLFEKYKGIT”: “failed”.
“MDFWPEFMATSWGREFVAGGFGGVAGIISGYPLDTLRIRQQQSSKSGSAFSILRRMLAIEGPSSLYRGMAAPLASVTFQNAMVFQIYAIFSRSFDSSVPLVEPPSYRGVALGGVATGAVQSLLLTPVELIKIRLQLQQTKSGPITLAKSILRRQGLQGLYRGLTITVLRDAPAHGLYFWTYEYVRERLHPGCRKTGQENLRTMLVAGGLAGVASWVACYPLDVVKTRLQQGHGAYEGIADCFRKSVKQEGYTVLWRGLGTAVARAFVVNGAIFAAYEVALRCLFNQSPSPDIVTGD”: the protein production result is reported as “failed”.
The same measure for “MDGGDDGNLIIKKRFVSEAELDERRKRRQEEWEKVRKPEDPEECPEEVYDPRSLYERLQEQKDRKQQEYEEQFKFKNMVRGLDEDETNFLDEVSRQQELIEKQRREEELKELKEYRNNLKKVGISQENKKEVEKKLTVKPIETKNKFSQAKLLAGAVKHKSSESGNSVKRLKPDPEPDDKNQEPSSCKSLGNTSLSGPSIHCPSAAVCIGILPGLGAYSGSSDSESSSDSEGTINATGKIVSSIFRTNTFLEAP”: “not failed”; for “MDGGFVRVCLLASGSKGNSLFVESDGTRVLIDAGLSAREIVRRLAVIEVEPADLDGLFISHEHVDHVRGVGVLARKYRLPVHVSYPTHHEVREGFGDAPVVEFESGYSFGFRDLLIDPFPITHDACDPVGFTIESKEGKVGIATDLGTATRLVADKLKRCRVLVLESNHDEEMLMGGPYPWHLKQRIKSRHGHLSNNDSAALLAEVLHPGLEGLFLAHLSEVNNDPAVAKEVAENLLVAQTTCSPRLIVGDQYRPSETLTL”: “failed”; for “MDGLHVSILSLVIFIVLFAVFVYLGFYASRWRKGDLSKLPEWALAGRKLGPYLMWFLLTADLFTAYTFIAVPSLVLASGPIGFYAAFYSGVTAFIALLFMPRLWAVSRNKGYVTAADFVKDRFNSKTLAGLVAVTGVVAELPYIALQIVGMQAALSILLLGLGVSNISLVNDLSLLVSFIILAAFVFTSGLRGAALTAVYKDIIILATVITVAIYVPLAFGGFSAAFSNAATYSSQVNSALNGVNKPIFYQYLQSTVSNNLAYISLAIGSAFALYLYPHAVNGSVSADSKKSLKISLALQPFYSLILAIIALFGILVYANTNVLNFIIHAKSGAVAVPALIGYTMPDWFVGVALLGIFIGGLVPAAIMAIGAANLLTRNIIKELKPNMSPNTESSLAKWISTAFKFIALALVFTVPATYAIQLQLLGGVIILQTLPPLFLGLYTHKLNSHSLIAGWVAGMFSGIYLTMLANHFGPIKTTSFITPIGVMYIGAISVIINVAIGLIGTAIAYGVGWRPRTGVKTEELV”: “failed”.
To “MDGMGTLTRYLEEAMARARYELIADEEPYYGEIPDLPGVWATGKSLKECEANLQAALEDWLLFLLSRGETPPPLGEVRIELPHGEAA” belongs “not failed”; to “MDGQQLNRLLLEWIGAWDPFGLGKDAYDVEAASVLQAVYETEDARTLAARIQSIYEFAFDEPIPFPHCLKLARRLLELKQAASCPLP”, “not failed”.
With “MDGRDLVRSVKAVGSGGAAGGLRTVRAAWRRRRADASGLPRRGAERARVPGPVQGVVPGPGGGVIRFARSELRITVAVNGAVFWGWDGAGPEPSYALAGRCPEPDPRAVLEPDKDGGWQVVAERGTVMVSRHGAVEVRTPGGVTLRRDLPPRWWEPADGGAAHWMQRSEVAADARFFGLGGRAAGPRLRGGTYRLWNTDPGHAVGPGDDPLYLTMPVQLVVADAATHLVFHDTSWDGTVTLREGEEGAGSGHDRAGTSELRMDGGPLRCWVMMGTPARVLHTWASLTGAPALPPAWALGHHHARRGSGSEQEVRGVVSGYQERGLPLDAVHLDNDHYDAHQVFTVDRDRFPKLPVLAEELRRDGIRLVSVVDPAVRAEPGNAVYDAGSAQDAFVRDAAGRVVEGVVWPGESVYPDFTHARVRKWWGGLYEERLAQGFAGFWHDLNEPVSFTAFGENTLPRSARHLLEGRGGDHREAHNVYALGMARAGYEGLRELSPQERPFIFSRSGWSGMQRYGGAWSGDVTTGWPGLRASLSLVIGLGLCGVPYSGPDVGGFDGSPSPELYLRWFQLGSYLPLFRTRAGLRAGRRELWEFGEDVLEHARVALVERRRLLPYFMTLAHLARRTGAPYVRPVWWGAPEDRALRDCEDAFLLGDSLLVAPVLDPGADRRAVQLPRGRWYDTVTEKAYDGPGQVLIGAPLSRIPVLARAGAVLPVRGDGGRLELEVWRPARGRTGGGLVVPDSGDGWDEPEIEQYVTRLRGQRVVVERDGDEGPGEPSYPVRVRGLPQA”, the protein production result is “failed”.
Consider “MDGSEDDPTIFSARCLPSDPRLWATVTNSYLGTRVYHDTIHINGVYNGAVGDTHRASLPSPLNVQLEAPAGTEQLTETFTLDTNTGSFLHTLEGPSFRASQRIYAHRVLPHVLVFSVSIARLTTGNKPITVPLRADFSPESPDLDLRVGPDFQGLRYLHGHVLNPEQPGEPQQEVHMLWMPVPPALTLGEEEKDRTWEFLTVVGSSQAEAQDCFAEALQLQTRGVLYTIHADSWGRLWAGCGLDVAGPLALRQALRGSLYYLFSELPQPGTQGFISHGLSPGGLSNGSKEECYWGHIFWDQDIWMFPNILMFHPEAARAILEYRVRTLGGALKNGQNLGYQGAKFAWESASTGLEVCPEDIYGTQEIHINGAVALAFQLYYYYTQDSKLFQEDGGWDVVSSVAEFWCSRVEWSSQDKMYHLKGVMPPDEYHSGVNNSVYTNVLVQNSLHFAAALAKDLGLPIRKQWLEVADRIKIPFDSEQNFHPEFDGYERGEEVKQADVVLLGYPVPFPLTPDIRRKNLETYEAVTSPQGPAMTWSMFAVGWMELRDPSRAQVHLSRSFANVTEPFKVWTENADGSGAVNFLTGMGGFLQAALFGCTGFRITEAGVTFDPLCPDLVSRVSVSGISYLGNKINFAFSKDSVTLEVTARAEPWAPLLEAELWPSLAHLPLTPGQKVSFPHSAGRIQRSSP”, for which the protein production entry is “failed”.
To “MDHFSYRNTNKMVRTHVVVGSRPCCFSCAMEEKDPCVRKAWLELSLRDMHMIRDDTELALTLSFIWRYAMADPENPELPSLGVFECMTRLMKKGLEDVEWVMTGQNVYVPYYAAHIIGSYTMKKPDFATKAVESGVIAPLLELMRRKMSWVEQRVVVRALGHLASYETTFEAVAAYEDEVVRLAMEIAMTCVDVVYEEFVSVQEKEGRVRYHSDLLTRGLGGLEMEDRKAEEWASQLQCWSLHLLNCFAYKQKCISLICNKTFLKELSQMWGGLVNHTSPSGIGLIRILCYSKQGRRHVSGSREMILSLCNLSRSSDDWQYMGIDCLLLLLKDQATRYNVLEMSLFYLVDLVEVKALNVRKNLGDRITKVLLMHYCKTKKGCAYSHKAQKALKELWRNKVERRRRERKFMSKNQDFLRETSVVVYLIKQQANQLLHVGDIEGAIKCYTEAIGLCPLKLRRKRMNLYSERGECYLLLGDVDAAISDCTRALCLSEPVNSHGKSLWTRSRAYDIKGLSRESLMDCIMFVNGRCFRGNIPYYAAQMISKQMEATWLFEKARASKLGRMMLKEKFHLTGIFIFLYICMNISS” belongs “failed”.
Take “MDHKDYSRQNAERRLLLSKDEERIRDELEMEIERNLEGEFKDGIYNLALKLRRLYEQRREREELFDVSMRKSKRVLEVNINIKMEGDTKIEITEKKKEVDNEKTKKAENSDKRKKFVAVGEDKTGKEKMKNQTRAHELRWKW”: the protein production result is reported as “failed”.
“MDHLPMPKFGPLAGLRVVFSGIEIAGPFAGQMFAEWGAEVIWIENVAWADTIRVQPNYPQLSRRNLHALSLNIFKDEGREAFLKLMETTDIFIEASKGPAFARRGITDEVLWQHNPKLVIAHLSGFGQYGTEEYTNLPAYNTIAQAFSGYLIQNGDVDQPMPAFPYTADYFSGLTATTAALAALHKVRETGKGESIDIAMYEVMLRMGQYFMMDYFNGGEMCPRMSKGKDPYYAGCGLYKCADGYIVMELVGITQIEECFKDIGLAHLLGTPEIPEGTQLIHRIECPYGPLVEEKLDAWLATHTIAEVKERFAELNIACAKVLTVPELESNPQYVARESITQWQTMDGRTCKGPNIMPKFKNNPGQIWRGMPSHGMDTAAILKNIGYSENDIQELVSKGLAKVED”: the protein production result was “not failed”.
For “MDHSLNSLNNFDFLARSFARMHAEGRPVDILAVTGNMDEEHRTWFCARYAWYCQQMMQARELELEH”, the protein production entry is “not failed”.
For “MDIEIENHPLEPFLPANARLLMLGSFPPQKKRWSMDFYYPNLNNDMWRIVGLLFFNNKDYFLNETRKAFCRERIISFLNDKGIALFDTASAIRRLQDNASDKFLEVVQPTDISRLLGQLPECKAIVTTGQKATDTLRAQFEVEEPKVGDFSEFVFDGRPVRLYRMPSSSRAYPLALDKKAAAYRTMYQDLQMLNIELEHHHHHH”, the protein production entry is on record as “not failed”.
To “MDIEVDIIEFKVPLENNKTIFIWDIQPTFTEAYIYESLWSVYSAFGDLYLLKVCPNATVAEPGFYALVKFYSSAQASKAQRATDKQCLFQSSPLKVRLSTKQNLSFYSSKPLCLSKCHNLANHYLGFGGWTTRIVTLKDLSNCVDAGCQEETGDQGVLLKYGCIMELSFPHHGMSCQGVGVAEEVLDSDQDPEEKLRKRGALMKRAKDKAMEVAFEKVLLLILGNGKVAIEIKIDPDEIVPEENSERVIKVNDISWTHIESADSNAEEDFLWDLTEDLPY” belongs “failed”; to “MDIGRKRDVFLIILPALCAFALALIPTFRYTVPLTWDVYYHIHNATLYMGRGIVFWDPLTSAPHGRPLYYPPLFHIMLLFLSKITGLGFFTVSRFMQPVFAFLILLSFSYVSGKLYGPLAGFLTGMFLFSSLFFMRMMFPIPESLAMISIPLFVYGYYRSMECCSRLYPVLTGLLLGLMLMTHILSASIILAVVTLSTIVLYIGKYDIRPWNLLIILGSGLLLASVWYAPLIVKYGFVFRSPATSSLPLEGYITHLGVLLTILSLAGIVHAAGRREKKDVIMAVWTVFVLALTAAYLLGLKVLSDRILYFALFPMATLSANLFNSIRINNGKWSFYAIILLISLYCIYDGYSLASSIKLEVSDSELDIAEWFRYNGDHATVVVSDYHIQPAIVAVSGQPVSAGGYAPGTIRSINVEKYISSFNYTKHDIMRDRVGYIILDNEERTPPYSRLVYRNRDFSVYRVNV”, “failed”.
